Biological target: soluble MERTK ectodomain (MERTK^ED-His)
Assay: SPR; Biacore T200, room temperature; […]; HBS-EP (10 mM HEPES pH 7.4, 150 mM NaCl, 0.05% Tween 20)

“CSFV E2 ectodomain (E2^ED-His) (domain or fragment)” was tested, and the Kd was 1630 nM.

Source: paper PMC7144274
